Results: article doi:10.1101/2020.06.27.175620 (bioRxiv, 2020)

B1: Rieske FeS protein of CIII2 (natural protein, Rhodobacter capsulatus)
chain: MSHAEDNAGTRRDFLYHATAATGVVVTGAAVWPLINQMNASADVKAMASIFVDVSAVEVGTQLTVKWRGKPVFIRRRDEKDIELARSVPLGALRDTSAENANKPGAEATDENRTLPAFDGTNTGEWLVMLGVCTHLGCVPMGDKSGDFGGWFCPCHGSHYDSAGRIRKGPAPRNLDIPVAAFVDETTIKLG
B2: cytochrome b of CIII2 (natural protein, Rhodobacter capsulatus)
chain: MSGIPHDHYEPKTGIEKWLHDRLPIVGLVYDTIMIPTPKNLNWWWIWGIVLAFTLVLQIVTGIVLAMHYTPHVDLAFASVEHIMRDVNGGWAMRYIHANGASLFFLAVYIHIFRGLYYGSYKAPREITWIVGMVIYLLMMGTAFMGYVLPWGQMSFWGATVITGLFGAIPGIGPSIQAWLLGGPAVDNATLNRFFSLHYLLPFVIAALVAIHIWAFHTTGNNNPTGVEVRRTSKADAEKDTLPFWPYFVIKDLFALALVLLGFFAVVAYMPNYLGHPDNYVQANPLSTPAHIVPEWYFLPFYAILRAFAADVWVVILVDGLTFGIVDAKFFGVIAMFGAIAVMALAPWLDTSKVRSGAYRPKFRMWFWFLVLDFVVLTWVGAMPTEYPYDWISLIASTYWFAYFLVILPLLGATEKPEPIPASIEEDFNSHYGNPAE

Experiments:
[1] = molecular target: B2; test: cryo-EM structure
[2] = molecular target: the molecule itself; test: cryo-EM structure

| binding result [1] | Binder | binding result [2] |
| --- | --- | --- |
| binds | B1 |  |
|  | B2 | binds |
